The text below walks through data of patent publication US20240252641A1 (TCR2 THERAPEUTICS, published 2024).

B1: human CD70, recombinant, N-terminally biotinylated (residues 39-193) (ligand, UniProt P32970 39-193, looked up)
chain: QRFAQAQQQLPLESLGWDVAELQLNHTGPQQDPRLYWQGGPALGRSFLHGPELDKGQLRIHRDGIYMVHIQVTLAICSSTTASRHHPTTLAVGICSPASRSISLLRLSFHQGCTIASQRLTPLARGDTLCTNLTGTLLPSRNTDETFFGVQWVRP
modifications: N-terminal biotin
notes: range 39-193; the same entry is used there; also called biotinylated human CD70; CD70 biotin

In assay [1] the target is T1, human CD27 fused to human Fc domain (human, UniProt P26842 21-192, limits assumed).
T1 construct: bought reagent; also called CD27-Fc; CD27Fc
T1 sequence (looked up): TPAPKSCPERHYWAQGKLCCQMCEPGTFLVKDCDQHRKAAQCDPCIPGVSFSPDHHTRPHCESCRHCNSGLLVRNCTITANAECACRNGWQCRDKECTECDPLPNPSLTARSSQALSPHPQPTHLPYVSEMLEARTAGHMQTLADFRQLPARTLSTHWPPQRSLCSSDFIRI
As to the kind of experiment: BLI, biotinylated CD70 on streptavidin sensors, 400 nM analyte. The method, then: (§1) Bio-layer interferometry was used to measure the binding affinity of CD70 to CD70-targeted antibodies 41D12, R3P3H12, R3P5A1, R3aP3E8, and R3aP9D10, and human CD27 fused to human Fc domain (CD27-Fc; Acro Biosystems cat. CD7-h5254). […] Following CD70 immobilization, biosensors were immersed in Octet Buffer to remove unbound, biotinylated CD70 and to establish a flat baseline sensor signal. CD70-loaded Biosensors were then transferred to Octet buffer containing 400 nM of CD27-Fc or αCD70 antibody and association was monitored for 5 minutes at 30° C. whilst agitating at 1,000 RPM. An scFv fragment derived from humanized llama αCD70 antibody 41D12 and fused to human Fc (41D12-Fc) served as a positive control for CD70 binding and an αLysozyme single-domain camelid antibody (clone D2-L19) was used as a negative control. CD27-Fc or αCD70 antibody dissociation was initiated by transferring sensors to Octet buffer and monitored for 5 minutes. Data were analyzed using ForteBio Data Analysis Suite 9.0. The observed association (kₒₙ) and dissociation (koff) rates for the binding of single-domain antibodies to CD70 were determined using a 1:1 curve fitting model to obtain, in all cases, R²≥0.95. Values of the equilibrium dissociation constant for binding to CD70, KD, were determined from the ratio of koff and kₒₙ.
In general terms: In BLI a coated tip is dipped into the sample, and binding shifts an interference pattern.

In assay [2] the target is T2, CD70 on cells (CHO-CD70, JVM-3, U266, Raji, THP-1, T cells) (human, UniProt P32970 1-193).
T2 construct: whole, on cells; also called cell-surface CD70
T2 sequence (looked up): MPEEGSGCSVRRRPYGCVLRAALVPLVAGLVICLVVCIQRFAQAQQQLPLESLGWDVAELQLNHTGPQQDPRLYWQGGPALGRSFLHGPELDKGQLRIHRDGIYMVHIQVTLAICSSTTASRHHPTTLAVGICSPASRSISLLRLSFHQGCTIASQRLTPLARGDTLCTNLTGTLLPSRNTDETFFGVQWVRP
Description: binding to CD70-expressing CHO cells with and without CD27-Fc. Put shortly: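 Anti-CD70 antibodies and CD27-Fc were applied to CHO cells with CD70 attached to the cell surface, in four set-ups. Each was applied alone; antibody was premixed with CD27-Fc; or cells were first coated with CD27-Fc or with antibody, washed, and then given the mixture. The binding signal was then measured in each set-up.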

Assay [3] has as its target B1. As to the kind of experiment: BLI, biotinylated CD70 on streptavidin sensors, 400 nM analyte. The method, then:
as §1

The target of assay [4] is T3, CD70 (UniProt P32970 39-193, limits assumed).
T3 construct: also called CD70 (100 nM)
T3 sequence (looked up): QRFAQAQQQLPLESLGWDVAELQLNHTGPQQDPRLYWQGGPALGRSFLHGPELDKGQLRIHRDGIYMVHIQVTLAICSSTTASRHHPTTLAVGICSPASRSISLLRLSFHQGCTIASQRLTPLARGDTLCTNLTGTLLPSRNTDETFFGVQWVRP
As to the kind of experiment: Octet (BLI); hybridoma mAb, CD70 at 100 nM.

The target in assay [5] is T3, CD70. As to the kind of experiment: Octet (BLI); mAb binding to CD70 with CD27 (competitor CD27).
Assay [6] has as its target T2, CD70 on cells (CHO-CD70, JVM-3, U266, …). Description: cell ELISA, about 500 nM VHH-His, anti-His-HRP. The method, then: A cell binding ELISA was carried out to determine whether the anti-CD70 VHHs could recognize the antigen on cells. ˜500 nM each VHH-his was diluted in blocking buffer (PBS+0.01% Tween20+2% non-fat dry milk) and added to wells containing 100,000-200,000 pre-blocked CHO-CD70 cells (high CD70 expression), JVM3 cells (medium-low CD70 expression), wild type CHO cells (negative control), HL60 cells (negative control). The plate was incubated for 1 hour at room temperature with agitation. After incubation cells were washed 3 times by spinning down and dumping of the supernatant followed by addition of PBST. Subsequently, secondary antibody was applied (anti-His-HRP) and the mixture incubated for 30 minutes. After 3 more washes TMB substrate was applied to the plates and the reaction was allowed to proceed for 1-5 minutes before 1M HCl was applied as a stop solution. Immediately following application of the stop solution the absorbance at 450 nm (OD₄₅₀) of each well was measured on a spectrophotometer.

Turning to B1, in assay [1], the binding result is on record as “binds”.

B2: R3P5A1 VHH (VHH)
VHH: QVQLQESGGGLVQPGGSLRLSCTASGSIFSATRMEWYRQAPGKQRELVAIVTSGGRTNYADSVNGRFTISRDNAKNTLYLQMNNLKPEDTAVYYCKFERYDYVNYWGRGTQVTVSS
notes: tested as VHH-His
For B2, the binding result in assay [2] and in assay [3] was “binds” throughout.

B3: R3P3H12 VHH (VHH)
VHH: QVQLQESGGGLVQTGGSLRLSCTASGSIFDIVRGSWYRQAPGNQRELVAIITSGGATNYADSVAGRFTISRDSAWKALYLQMNSLKPEDTAVYFCNMESVRYRNYWGQGTQVTVSS
notes: tested as VHH-His
Take B3: the binding result in assay [2] and in assay [3] was “binds” throughout.

B4: 9A1 (9A1H6) (antibody, V domains shown)
VH: QVQLVQSGAEVKKPGASVKVSCKASGYSFTGYYMHWVRQAPGQGLEWMGWINPKSGGTSYAQQFQGRVTMTRDTSMSTVYMELTRLRADDTAVYYCARLYYSGWYGDYWGQGTLVTVSS
VL: DIQMTQSPSSLSASVGDRVTITCQASQDINNYLNWYQQKPGKVPNLLIYDASNLETGVPSRFSGSGSGTDFTFTISSLQPEDIATYYCQQYNNPPITFGQGTRLEIK
notes: IgG in hybridoma supernatant
For orientation: Kd means the free concentration of one partner at which half of the binding sites on the other are occupied at equilibrium, for simple one-to-one binding. What is called koff is the rate constant with which the complex falls apart. Higher therefore signals fast dissociation. Usually kon stands for the second-order rate constant of association. A lower kon goes with slower complex formation. In the assay with CD70 [4], B4 showed a Kd of 0.00603 nM, a Response of 0.434, a koff of 5.28e-07 s⁻¹ and a kon of 87500 M⁻¹ s⁻¹. Also, in the assay with CD70 [5], the “CD27:CD70 Interaction Neutralization of mAb Binding” value was found to be 0.0553.

B5: R2P14A12 VHH (VHH)
VHH: QVQLQESGGGLVQPGGSLRLSCVASGFTLDRYAVGWFRQAPGKELEGVSCISSSGDIIKYADSAKGRFTIARDNAKNTAYLQMNSLKPEDTAVYYCTAADPKDDCSVPGYYGLNYWGKGTQVTVSS
notes: tested as VHH-His
For the molecule B5, the binding result in assay [2] is given as “binds”.

B6: R3P2G8 VHH (VHH)
VHH: QVQLQESGGGLVQTGGSLRLSCTASGSIFDIARGNWYRQAPGKQRELVAIITSGGATNYADSVAGRFTISRDDAKNTVYLQMNGLKPEDTAVYFCNMESLSYRHYWGQGTQVTVSS
notes: tested as VHH-His
Regarding B6, in assay [6], the binding result is on record as “binds”.

B7: 4G7 (4G7E8) (antibody, V domains shown)
VH: QVQLVESGGGVVQPGRSLRLSCAASGFTFSSYGLHWVRQAPGKGLDWVAVIWYDGSNKYYVDSVKGRFTISRDNSMNTLFLQMNSLRAEDTAVYYCARDEAAAAGAFDIWGQGTMVTVSS
VL: DIQLTQSPSFLSASVGDRVTITCRASQGISSYLAWYQQKPGKAPKLLIYAASTLQSGVPSRFSGSGSGTEFTLTISSLQPEDFATYYCQQLNYYSITFGQGTRLEIK
notes: IgG in hybridoma supernatant; The variable domains exist only inside scFv entries 1213/1214
Take B7: in the assay with CD70 [4], binding was characterised by a dissociation constant (Kd) of 1.28 nM, the Response is 0.357, the koff was found to be 0.000167 s⁻¹ and the kon amounted to 130000 M⁻¹ s⁻¹. Moreover, the “CD27:CD70 Interaction Neutralization of mAb Binding” value with CD70 [5] turned out to be 0.0429.

B8: R3aP4D6 VHH (VHH)
VHH: QVQLQESGGGLVQAGGSLRLSCAASKSIIRDNVMAWHRQAPGKQRELVAIINTGGSANVDDSVKGRFTISRDNAKNMVYLQMNNLKPEDTAVYYCNVYYRDLWGQGTQVTVSS
For B8, the binding result in assay [2] is “binds”.

B9: R3P15F6 VHH (VHH)
VHH: QVQLQESGGGLVQPGGSLRLSCVASGFTLDKYAIGWFRQAPGKELEGVSCITSSSGVVKYADSVKGRFIISRDNTNNRAFLQMSSLKPEDTAVYYCAAAGPPDDCSVPGYYGLNYWGKGTQVTVSS
Turning to B9, the binding result in assay [2] is “binds”.

B10: 1E3 (1E3D9) (antibody, V domains shown)
VH: QLQLQESGPGLVKPSETLSLTCTVSGASITSTSYYWNWIRQPPGKGLEWIGRISYSGSTYYNPSLKSRVTISVDTSKNQFSLKLSSVTATDTAVYYCARQIRYNWNPDTFDIWGQGTMVTVSS
VL: EIVMTQSPATLSVSPGERATLSCRASQSLNSNLAWYQQKPAQAPRLLIYGASTRATGIPARFSGSGSGTEFTLTISSLQSEDFAVYYCQQYDNWPLTFGGGTKVEIK
notes: IgG in hybridoma supernatant
On to B10, for which, in the assay with CD70 [4], binding was put at a Kd of 0.255 nM, the Response turned out to be 0.506, the koff came out at 3.88e-05 s⁻¹ and the kon was determined as 152000 M⁻¹ s⁻¹. Also, the “CD27:CD70 Interaction Neutralization of mAb Binding” value in the assay with CD70 [5] was 0.102.

B11: R3aP9D10 VHH (VHH)
VHH: QVQLQESGGGLVQAGGSLRLSCAAPGFTFDAYAIGWFRQAPGKEREGVICLSPSDGSTYYADSVKGRFTISSDNAKNTVYLQMNSLKPEDTAVYYCATPSWCSLKADFGSWGQGTQVTVSS
notes: tested as VHH-His
With B11, the binding result in assay [2] and in assay [3] was “binds” in each case.

B12: 2F1 (2F1F7) (antibody, V domains shown)
VH: EVQLVESGGVVVQPGGSLRLSCAASGFTFDDYTMHWVRQAPGKGLEWVSLVSWDGGSTYYADSVKGRFTTSRDNSKKFLYLQMNRLRTEDTALYFCAIDRAYRPYYYYHMDVWGKGTTVTVSS
VL: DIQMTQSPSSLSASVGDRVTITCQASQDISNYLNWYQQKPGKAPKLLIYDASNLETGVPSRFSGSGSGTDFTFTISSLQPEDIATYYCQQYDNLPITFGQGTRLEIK
notes: IgG in hybridoma supernatant; The variable domains exist only inside scFv entries 1215/1216
In the assay with CD70 [4], B12 showed a Kd of 6.6 nM, a Response of 0.698, a koff of 0.000555 s⁻¹ and a kon of 84100 M⁻¹ s⁻¹. Besides, the “CD27:CD70 Interaction Neutralization of mAb Binding” value in the assay with CD70 [5] is 0.0275.
